This series has as its target T1, protein tyrosine kinase 7 (PTK-7) on HCT-116 cells (UniProt Q13308).
T1 sequence: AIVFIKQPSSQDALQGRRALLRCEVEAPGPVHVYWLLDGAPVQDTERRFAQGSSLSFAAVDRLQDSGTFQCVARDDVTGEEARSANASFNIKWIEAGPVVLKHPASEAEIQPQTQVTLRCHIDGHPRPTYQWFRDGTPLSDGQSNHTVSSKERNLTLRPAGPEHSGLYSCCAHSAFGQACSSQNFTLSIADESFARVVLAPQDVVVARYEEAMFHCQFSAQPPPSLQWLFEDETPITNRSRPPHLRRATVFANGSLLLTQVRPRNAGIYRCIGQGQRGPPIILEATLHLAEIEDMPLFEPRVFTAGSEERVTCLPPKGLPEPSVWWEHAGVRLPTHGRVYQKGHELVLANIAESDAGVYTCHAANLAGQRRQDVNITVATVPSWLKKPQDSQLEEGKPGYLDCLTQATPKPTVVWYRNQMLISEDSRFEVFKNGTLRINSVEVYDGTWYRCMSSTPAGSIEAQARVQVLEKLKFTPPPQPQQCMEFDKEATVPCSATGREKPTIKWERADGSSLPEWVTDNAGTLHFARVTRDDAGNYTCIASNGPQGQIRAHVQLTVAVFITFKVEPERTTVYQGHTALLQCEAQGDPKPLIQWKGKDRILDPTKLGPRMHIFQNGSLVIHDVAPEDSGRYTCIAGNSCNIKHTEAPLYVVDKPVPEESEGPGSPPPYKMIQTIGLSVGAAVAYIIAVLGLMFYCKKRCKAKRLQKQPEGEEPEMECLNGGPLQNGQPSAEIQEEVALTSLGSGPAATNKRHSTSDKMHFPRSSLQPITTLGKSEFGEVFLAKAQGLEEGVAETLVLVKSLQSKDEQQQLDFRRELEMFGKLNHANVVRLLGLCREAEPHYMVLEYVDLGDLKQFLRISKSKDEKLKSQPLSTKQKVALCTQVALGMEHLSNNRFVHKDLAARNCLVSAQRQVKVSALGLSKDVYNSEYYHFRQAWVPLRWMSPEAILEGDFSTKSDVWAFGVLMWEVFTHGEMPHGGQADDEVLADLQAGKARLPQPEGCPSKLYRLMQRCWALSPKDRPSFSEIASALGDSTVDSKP
Briefly: flow cytometry, cell binding. Conditions: 5 mM Mg2+, Whole cells washed in D-PBS with 4.5 g/L glucose and 5 mM MgCl2, 300,000 cells in 200 ul binding buffer (composition and pH not stated), on ice 30 min …. Background: Flow cytometry measures light scatter and fluorescence of single cells or particles in a stream.

The Kd is the constant that tells how readily two partners part at equilibrium. Consider “ATCTAACTGCTGCGCCGCCGGGAAAATACTGTACGGTTAGA [NOTA-SGC8]”, for which the Kd (5' amino coupled to p-SCN-Bn-NOTA) came to 3.49 nM. The sequence “ATCTAACTGCTGCGCCGCCGGGAAAATACTGTACGGTTAGA [SGC8]” displayed a Kd of 1.88 nM.
